Data published in patent US6271440, “Plant regulatory proteins III” (The Australian National University).

Tests used:
[1] = biological target: T1, GAMYB (OsGAMYB) (Oryza sativa) (UniProt Q0JIC2); test: cell_activity; conditions: GUS increase without GA versus empty Ubi1.cass effector
T1 sequence: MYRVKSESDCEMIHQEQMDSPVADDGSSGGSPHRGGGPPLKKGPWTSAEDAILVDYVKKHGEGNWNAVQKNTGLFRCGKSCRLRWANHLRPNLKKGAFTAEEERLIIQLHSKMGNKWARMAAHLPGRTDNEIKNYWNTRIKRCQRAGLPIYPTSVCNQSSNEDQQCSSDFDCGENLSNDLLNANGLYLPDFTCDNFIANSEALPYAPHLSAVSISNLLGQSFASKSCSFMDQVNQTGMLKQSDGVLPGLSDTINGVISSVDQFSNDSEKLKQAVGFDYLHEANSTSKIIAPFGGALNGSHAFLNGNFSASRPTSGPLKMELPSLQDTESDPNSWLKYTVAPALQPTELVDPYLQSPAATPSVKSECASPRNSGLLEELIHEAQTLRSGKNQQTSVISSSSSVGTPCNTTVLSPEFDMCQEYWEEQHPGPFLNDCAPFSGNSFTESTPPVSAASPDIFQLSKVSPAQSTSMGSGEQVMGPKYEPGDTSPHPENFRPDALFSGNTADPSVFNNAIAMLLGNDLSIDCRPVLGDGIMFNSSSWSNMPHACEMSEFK

[2] = biological target: T2, GAMYB (HvGAMYB), GST fusion (Hordeum vulgare); test: EMSA; TAACAGAc; mutation had no effect on binding; conditions: tags: N-terminal GST (pGEX), E. coli XL1-blue; label: 32P; 5' overhangs
T2 chain: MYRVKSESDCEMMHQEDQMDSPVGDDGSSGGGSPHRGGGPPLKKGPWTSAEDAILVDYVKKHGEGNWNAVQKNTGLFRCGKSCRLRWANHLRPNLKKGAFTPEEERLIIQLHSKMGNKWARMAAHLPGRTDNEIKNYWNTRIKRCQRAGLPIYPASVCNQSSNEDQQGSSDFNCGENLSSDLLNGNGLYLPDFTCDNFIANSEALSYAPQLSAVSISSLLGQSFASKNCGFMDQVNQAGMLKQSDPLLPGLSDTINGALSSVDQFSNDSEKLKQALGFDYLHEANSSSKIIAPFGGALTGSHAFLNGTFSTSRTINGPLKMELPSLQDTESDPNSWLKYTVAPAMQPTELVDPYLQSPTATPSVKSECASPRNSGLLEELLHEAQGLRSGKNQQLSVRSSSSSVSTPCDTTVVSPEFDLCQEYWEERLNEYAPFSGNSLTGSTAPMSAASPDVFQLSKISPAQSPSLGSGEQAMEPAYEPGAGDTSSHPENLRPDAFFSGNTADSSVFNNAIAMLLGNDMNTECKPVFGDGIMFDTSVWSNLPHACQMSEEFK
Description: (§1) After annealing the complementary oligonucleotides were 3' end-labelled using ^32P-dCTp and the Klenow fragment, and purified by electrophoresis on polyacrylamide gels. Bacterially-produced GAMYB fusion protein-oligonucleotide binding reactions were performed in 10 µl binding buffer (24 mM Hepes-KOH pH 7.9, 50 mM KCl, 0.5 mM EDTA, 0.5 mM dithiothreitol, 10% (v/v) glycerol) with 2 µg of poly(dI-dC)-poly(dI-dC), 150 ng of GAMYB fusion protein and 0.9 ng of a $^32$P-labelled oligonucleotide probe (40,000 cpm). After incubation at 20° C. for 10 min, the samples were run on a 6% (w/v) polyacrylamide gel containing 5% (v/v) glycerol, in 0.25 x Tris-borate-EDTA buffer at 140 volts. After electrophoresis, the gels were dried and autoradiographed.
(§2) To test whether GAMYB binds to the TAACAAA box in the high-pI α-amylase promoter, we performed gel-retardation experiments as described in Example 8. We looked for binding between an oligonucleotide probe (w) containing the amylase promoter sequence (−149 to −128), including the wild-type TAACAAA box and an affinity-purified glutathione-s-transferase (GST)-GAMYB fusion protein that had been expressed in Escherichia coil according to Example 7. […] Experiments were also performed using mutant oligonucleotide probes (m-1 to m-5).

[3] = biological target: T2, GAMYB (HvGAMYB), GST fusion; test: EMSA; single mutation TGACAAAc; conditions: tags: N-terminal GST (pGEX), E. coli XL1-blue; label: 32P; 5' overhangs
Description: as §1, §2

[4] = biological target: T2, GAMYB (HvGAMYB), GST fusion; test: EMSA; 24 mM Hepes-KOH pH 7.9, 50 mM KCl, poly(dI-dC), 20 C; 100-fold cold w abolishes complex; conditions: tags: N-terminal GST (pGEX), E. coli XL1-blue; label: 32P; 5' overhangs
Description: as §1, §2

[5] = biological target: Glutathione-S-transferase (GST control) (UniProt P08515 P08515:1-218); test: EMSA; GST alone control; conditions: tags: pGEX vector; label: 32P; 5' overhangs
Sequence of Glutathione-S-transferase (GST control) (P08515 whole entry, one chain of several): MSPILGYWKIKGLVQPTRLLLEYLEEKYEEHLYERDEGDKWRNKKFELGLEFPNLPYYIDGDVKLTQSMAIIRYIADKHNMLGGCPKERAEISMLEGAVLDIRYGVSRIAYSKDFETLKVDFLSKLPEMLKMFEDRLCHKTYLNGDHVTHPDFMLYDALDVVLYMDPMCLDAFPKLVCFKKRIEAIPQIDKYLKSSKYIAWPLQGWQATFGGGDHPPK
Description: as §1, §2

[6] = biological target: T2, GAMYB (HvGAMYB), GST fusion; test: EMSA; single mutation at 3' end of site; conditions: tags: N-terminal GST (pGEX), E. coli XL1-blue; label: 32P; 5' overhangs
Description: as §1, §2

[7] = biological target: T2, GAMYB (HvGAMYB), GST fusion; test: EMSA; multi-bp mutation abolishes binding; conditions: tags: N-terminal GST (pGEX), E. coli XL1-blue; label: 32P; 5' overhangs
Description: as §1, §2

Amy32b low-pI alpha-amylase promoter (mlo22)
activity [1]: 176 fold

B1: m-3 (dsDNA)
DNA 1: GGCCGATAACAGACTCCGG
DNA 2: CCGGAGTCTGTTATCGGCC
binding result [2]: binds

B2: m-2 (dsDNA)
DNA 1: GGCCGATGACAAACTCCGG
DNA 2: CCGGAGTTTGTCATCGGCC
binding result [3]: no binding

B3: w (dsDNA)
DNA 1: GGCCGATAACAAACTCCGG
DNA 2: CCGGAGTTTGTTATCGGCC
binding result [4]: binds | binding result [5]: no binding

B4: m-5 (dsDNA)
DNA 1: GGCCGATAACAAAATCCGG
DNA 2: CCGGATTTTGTTATCGGCC
binding result [6]: no binding

B5: m-4 (dsDNA)
DNA 1: GGCCGATAACAAGCTCCGG
DNA 2: CCGGAGCTTGTTATCGGCC
binding result [6]: no binding

B6: m-1 (dsDNA)
DNA 1: GGCCGACTCGAGACTCCGG
DNA 2: CCGGAGTCTCGAGTCGGCC
binding result [7]: no binding
